Experimental data taken from the DeepSol protein solubility set.

experiment: soluble on expression in E. coli; label from the status in PepcDB or PDB records

| Sequence | soluble on expression in E. coli |
| --- | --- |
| MNPAPERTVMQHVRPLPYEADFTGFLSNTVAPRWMEALRIQRMRTCFPHFDSGAPQHLCIITETTVRYRKPVRYSDAIVGKAWLQSARYSRWIIAFSFAFEFSGLPAFEGRQAGTFIDPLEHHHHHH | not soluble |
| MTTHQVKKSEAKRQHILDSGFHLVLRKGFVGVGLQEILKTSGVPKGSFYHYFESKEAFGCELLKHYISDYQIRLNQLWTTETSARDKLMNYLQCWVKDPATEQSWAESCLIVKMAAEVADLSEDMRLIMNDGVKRLIARMADLIRIGQQEGSIQTSVVPDVLAQVIYQMYLGAALLSKLYKHKAPLFQALESTKMMLDGCNHVQQDKNQ | soluble |
| MNANVYQHFRKDEHPFIDTVGDWLEQVEMQYAPYLTDFLDPRQAYILETLIRQNSDLSFTFYGGYEQAERKRCLIYPAYYIPEETDFGVVLFEIIYPSKFATLSHGKILGTLMNVGVRREAFGDIISDGDKWQVFIAQEVAGFVVNQVDKIGKITVRLEERDYTQILIPKDGWQEERTTMSSLRLDSVISAVFNISRQRSKQLIESGKVKVNWTETTRPDFALDLLDIVSIRGFGRLQIQELEGKTKKEKFRVLLGVLRK | not soluble |
| MAVTVSVAQATPAPFDMAARFKALYTREWRWRQAEFPGVVERSSQPQCVDHLPKVDLARQNKRTAYWQQVLEELKTIDPVRLSSKDQINYQVYRQQIEVLLDGQRFRSWEMSFNSDTAFWSDLSFSARDRFRTSEDYRCYLGVLADIPRYFNEQIVNLRQGLARGFAQPRVTLEGRDQVIAEVAGAAGEDNLFYIPFKQMPTMMSAGEQARLRAQVLHLIVDQVVPAYRHLLAFMREEYLPKARTVLAAESLPGGVAYYRAKIFEYTTLDLDPEAIYQIGVAEVAKLRQQMDQVIVDSGFKTSPDQQIFSAFLRYLRTDPQFYPKTPEALLKEAAWIAKRVDAKIGLYIGRLPRRRFAIEPVPADVAPYYTSGRGGPGIYFVNTYDLPSRPLYNLTALTLHESSPGHALQMPLAEEAKEVPEFRRYAFISAYGEGWAVYAEYLGQEMGLYDTPYDRFGYLSYQIWRACRLVIDTGIHHKGWTRAQAQAYLRDNTALSEREITTEVDRYISWPGQALSYYLGELKILELRHKAEAALGAKFDIRHFHDAVLGLGSVPLQVLEARIDRFIAE | not soluble |
| MSAASEAVSGALFQHLFRIFSLFADQNEKGTFKPAQAEFLIDELLRELRRQTTPKVHDLPENVTFNEFLNLLQVIFPDREDLLIATNRVFERYVNHVIGKGFVLFRKLSQKRGCLPFKRRTEDWQFGWLQVLPGVAEIRKQNSDIDDIIQFDEDTVIEPPVIDEDASVWSVICNSTTAFQFSHLDPIMAQLFVKGFLTYWKLNLKYFFSDMRSARDFPTREELAVFDYKRSLKSRPTKEGKSRKELETERCRLESELEEEKKNRKDEEIVRGLTTRLLKQEMEKSEQMQQVIYELRSKLDNGENEAGVDDEDIVDVEMIEDEISEDVGENEEISITLPSREEKIQQYAYHLYATQAEEHVTSDDEEIWKQNYNLIVSTHFTDTMWKSCKPIVYCSEIVSQIVNQSPFIFLINLNNDLHNRATLGLTTYLVSYRFPCSFFLIELKMTKLRVGFIGYGHLGKFLVEKLRLLPEEFEIVKIWNRSVGEPGVQGLETLTAENLKDIDLVVEVAHPKIIADYGELILEHCDLFAGSPTCFANQELLEKLTKLSLSHGKKLLIPAGALWGANDIQKMADVGSLKGLTVTMIKHPTSFKLGSPLFEINEKAKLEETNETVLYEGSVRGLCPLAPNNVNTMAGGALAASNLGFDEVKAKLISDPKMTDWHVVEVRVEGDDGFEVITRRNNPAKPGAVTGQLTYYSFLSSIKESRYKPIGVQLC | not soluble |
| MAKNDKINFSTPSGFPEFLPSEKRLELYLLDTIRRVYESYGFTPIETPAVERLEVLQAKGNQGDNIIYGLEPILPPNRQAEKDKSGDTGSEARALKFDQTVPLAAYIARHLNDLTFPFARYQMDVVFRGERAKDGRFRQFRQCDIDVVGREKLSLLYDAQMPAIITEIFEAVNIGDFVIRINNRKVLTGFFQSLNISETQIKSCISIIDNLEKIGEAKVKLELEKEGINPEQTQKIIDFVKIDGSVDDVLDKLKHLSQTLPESEQFNLGVSELETVITGVRNLGVPDKRFCIDLAIARGLNYYTGTVYETTLIGHEALGSICSGGRYEELVGTFIGEKMPGVGISIGLTRLISRLLKAGILNTLPPTPAQVVVVNMQDELMPTYLKVSQQLRQAGLNVITNFEKRQLGKQFQAADKQGIRFCVIIGADEAAAQKSSLKDLQSGEQVEVALADLAEEIKRRLT | soluble |
| MAAFSQLYDLHINILFNYGLKLTIDKELLKDCIHDIFVKLYTKKDELGTIDNLKSYLFISLKNKLCDELRKRMYMSDTAIEDVNAVAPTDVEDDYMEEEQRKNEFSLVKRLLDQLSPRQREALTLYYIEEKKYEDICEIMNMNYQSVRNLMHRGLTKLRSLAS | not soluble |
| MREVKAFVTQDIPLYHNLVMKHIPGADPELVLLNHYYEELDRIPLFEMTRAEINKLLAELGFYKKDHPEDQVPEEFRFSPAKDSPFEGRQSSTAAPETTEPSDSQHTDL | soluble |
| MADLFAGKPLINQEGKELDGGDALRGKKVVALYFSAMWCGSCRQFTPKLKRFYEALKAAGKEIEVVLVSRDREAEDLLEYLGHGGDWVAIPFGDERIQEYLKKYEVPTIPAFKLINNAGELLHDARADVTERGKDDAVALFDEWVEKFPAN | not soluble |
| MGHHHHHHHHHHSSGHIEGRHMEANGLGPQGFPELKNDTFLRAAWGEETDYTPVWCMRQAGRYLPEFRETRAAQDFFSTCRSPEACCELTLQPLRRFPLDAAIIFSDILVVPQALGMEVTMVPGKGPSFPEPLREEQDLERLRDPEVVASELGYVFQAITLTRQRLAGRVPLIGFAGAPWTLMTYMVEGGGSSTMAQAKRWLYQRPQASHQLLRILTDALVPYLVGQVVAGAQALQLFESHAGHLGPQLFNKLALPYIRDVAKQVKARLREAGLAPVPMIIFAKDGHFALEELAQAGYEVVGLDWTVAPKKARECVGKTVTLQGNLDPCALYASEEEIGQLVKQMLDDFGPHRYIANLGHGLYPDMDPEHVGAFVDAVHKHSRLLRQN | soluble |
| SDLCQLFVEQLFGFQDPASLHVLINEIPCARKNLISLRRFSLLIAEPQWFTGSIYDNLVLNHRNVPNKIIIEQLKNVGLADKIIQLPEGLRTILYEWQDVFTLVELTKLMLVRALLLQPELIVIDRAFDILNHQEVNEMMELVLSLKNTLLAIVSQRSDFNYLNNRLVISS | not soluble |
| MGSDKIHHHHHHMKTFLESLKFPVQEVNKKSSGEKGPGRPPYWEMVFYWTRKPLVGARSVIAGALLPENVDENLFKAAVRLSSPTPHRENPQIPAEFAKYFEGKKLLDPFAGFGSIPLEGLRLGLDVTAVELLPTTYIFLKAVLEYPKKFGKSLVKDVERWGEWITEQLKNDPEIRELYDDDVAVYIGTWEIRCPHCGRWTPAIGNFWLARVKDGKGYKRLAYMKPERKGDEIEIRVIDLNEILDDISKANVDGNEIIFEGENYVKTVEEAVRDGKLKQSDVKIDGNTVIFEVPSANIESRRDQLTCLMCGNVIKYADENGNHHMKLKNGDFYVKFALRKYHEGDERFARQRLLVKVKVKDGDLIFEPATKEDSEKLWKAKEKVREMLEKGDLDVPSEAIPLYENRRITPILSAEKWYQFFNPRQLLTLIKIVRLIREVGRKVEEEKIAEGWNKERAFEYAEAVATYLSTAMLKYAYYNSIVTRWDSTWWKIGETMSTRGIAMNWNWTESPWFSSFGGMIKTLLAILRGVKYLTSALSSSQRTLADFTENSVKVLQGDATSLNLGEKFDVIVTDPPYADDVPYTELSDFYYVWLKRALSDVENGKLIPRFHKEAFFKRIGPKWVEIKTQWQEFAKKEVSTNPGRFMEDENKKEKAVQHFENLFSQAFVAMREHLKDDGVLVTYYAHTDPGSWINLIEAGWRRARLQITRAIPLTTESETSIVSRGKMSLDTSIVAVWRKQKEEKTVQISTLKEEIERKAKSSAREFIEYGYEGLDLLYGVMAAALEEVTKYREISSLKGPLTTEEILNEYVYPATIRGIVNAIAEIEGTGTLHSGTAMFYTAYKILFGNASLSANDIVLLRLATSTDPSELISSGVLKEKRSSSSKEYTLYTPDLLGKKALDTKEFQKFLHEKKLDPVEPKPKNSVDVLQLLEYYSLLGRSRVKEEIEKLRKMWAGEVEEALFIARLVSEYYAEIYIRKIDPVRRMKEEFASEIDRELEKDGFLEVVLMRRLLGYVGGAV | not soluble |
| MGSDKIHHHHHHMANTPLLITLLPSSGVDLSRWLMAHYGVTYEERPHAPIFHVLALKSWGEGKDGYPLFVHADRTTKTVGCRKIAEFFDPSAPADKTLLPDPDAEPELAAQVDDIVKYSYWTIGGDVVNWSYWNFLKYKWVVWPSLTTKVPWYEKLTCLVAFRLIRFLMYKGLKLDQRVADASLKEILAGFDKFDAMLADGRPYLTGDRMTYADLATAAALGPMILAQGYHGMLPNQAKCPVFMQGIYQQLRQRPTGLFIQRMYDQHRPAQLLQI | not soluble |
| MGSDKIHHHHHHMTKRIMFTGGSGKAGRHVVQYLVEQGCQVLNIDTKPLDNPKVRTLITDITDSGQVFNALSSYMGLHEFDPSLRPQPVDAVVHFAAIPRIMITPDNEVFRINAMGTYNVIEAAVKLGIRKVIVASSETTYGLVFANEPRDPKYFPLDEEYDVDPMDSYALSKVVNEKTARAFAQRNGTDIYALRIGNVIEPHEYSLFPKWFADPGFRKRIAWSYIDARDLGQITLRAIEKDGLGYQVFNAANDDTSSDLPTAELLKRFYPNVPVKAALGEYETLLSNRKARDMLGFRPEHSWRKYVK | not soluble |
| GPLGSATITQDTPINQIFTDTALAEKMKTVLGKTNVTDTVSQTDLDQVTTLQADRLGIKSIDGVEYLNNLTQINFSNNQLTDITPLKNLTKLVDILMNNNQIADITPLANLTNLTGLTLFNNQITDIDPLKNLTNLNRLELSSNTISDISALSGLTSLQQLSFGNQVTDLKPLANLTTLERLDISSNKVSDISVLAKLTNLESLIATNNQISDITPLGILTNLDELSLNGNQLKDIGTLASLTNLTDLDLANNQISNLAPLSGLTKLTELKLGANQISNISPLAGLTALTNLELNENQLEDISPISNLKNLTYLTLYFNNISDISPVSSLTKLQRLFFYNNKVSDVSSLANLTNINWLSAGHNQISDLTPLANLTRITQLGLNDQAWTNAPVNYKANVSIPNTVKNVTGALIAPATISDGGSYTEPDITWNLPSYTNEVSYTFSQPVTIGKGTTTFSGTVTQPLKA | soluble |
| MGSDKIHHHHHHMEQATRTIYSEYAAYPETQGIIAVEKRQPRDSLTDQFDVLLLVITRDPSVEWTVKHYRLNTLRVSLHLVHEQVLSRWLILNANRRAVHWVSEGTIIFERNDYLTDLKKQLRNFPETERCLQMSLSFAKLLRRFQDGRNLFSRGNYYDAYTHVHHALHHLARLSVLEKGAHPEVVVWEQARLDDPDVYKLYEQLLLSEETLEQRIHLALIGLEHLLQSKVLSGGKYLFEVMRERDRPWTMHELMEESRLTELKVDLGSLVDFFIRKGLIRISYQRTKGLGVELVTYEPVV | not soluble |
| AHHHHHHGSKIKRKIYWTKEFDSSHLLDLPYESKCKRIHGHTYRIEIEIYGDINEQGMIFDFNHLSDLIKELDHKIIVSKNWIEEREEFIVVKKNQKTLEIPRSEVVVIDKPNVTAEYLAEWFVEKILEKADKNIYEIKVRVWEDPRSYAEVTLELQGS | soluble |
| MGSDKIHHHHHHMEAQDHNNEQQVTEYQVMSYLRAHPQFFEHHTGLLAELYLPSPHGQGTVSLAERQQLAQRDRIRVLDAKLAQLMKYGEENDAIGEKVHRLSLGLLATERMEVLVSLLEHSLHEDFQVPYVSLRLWAKPRESGNGSLPIFASVDQELQRWAQGLATPYCGNRPGMPLQGWFGVEARPASFAVMALKAQQVFGVLALASDDDKRFYPDMGTLYLKRISELISAALLRHIIV | not soluble |
